Test results taken from patent US20260097113A1 (Pfizer, published 2026).

T1: RSV F protein of subtype A comprising a polypeptide of SEQ ID NO: 1 and a polypeptide of SEQ ID NO: 2 (RSV subtype A, UniProt P11209 137-513; P03420 26-109)
T1 construct: Stabilized prefusion F trimer made of three F2-F1 heterodimers; Produced recombinantly in CHO cells; also called RSV A; RSVA
T1 chain 1: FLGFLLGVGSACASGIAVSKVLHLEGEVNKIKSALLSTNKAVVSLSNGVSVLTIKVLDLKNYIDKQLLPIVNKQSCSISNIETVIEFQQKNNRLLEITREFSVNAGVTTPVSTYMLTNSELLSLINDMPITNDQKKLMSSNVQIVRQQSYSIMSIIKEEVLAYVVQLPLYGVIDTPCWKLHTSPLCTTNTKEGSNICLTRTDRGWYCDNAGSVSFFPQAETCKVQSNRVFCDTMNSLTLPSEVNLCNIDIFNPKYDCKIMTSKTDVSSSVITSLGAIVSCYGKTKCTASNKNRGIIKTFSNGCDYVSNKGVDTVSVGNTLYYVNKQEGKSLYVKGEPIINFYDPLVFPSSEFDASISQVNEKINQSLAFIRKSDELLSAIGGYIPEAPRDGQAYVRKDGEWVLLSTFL
T1 chain 2: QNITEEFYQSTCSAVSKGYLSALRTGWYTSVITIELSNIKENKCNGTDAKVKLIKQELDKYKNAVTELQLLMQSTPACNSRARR

B1: AM14 (trimeric prefusion specific antibody of the AM14 ELISA) (antibody, V domains shown)
VH: EVQLVESGGGVVQPGRSLRLSCAASGFSFSHYAMHWVRQAPGKGLEWVAVISYDGENTYYADSVKGRFSISRDNSKNTVSLQMNSLRPEDTALYYCARDRIVDDYYYYGMDVWGQGATVTVSS
VL: DIQMTQSPSSLSASVGDRVTITCQASQDIKKYLNWYHQKPGKVPELLMHDASNLETGVPSRFSGRGSGTDFTLTISSLQPEDIGTYYCQQYDNLPPLTFGGGTKVEIKR
notes: Antibody as used in the AM14 ELISA, detected with an HRP-labeled secondary antibody

Columns and labels:
[1] = biological target: RSV A + RSV B bivalent composition (RSV subtype A; RSV subtype B); test: AM14 Fab titration by SEC; composition of Table 17; Pre-lyo Prep 1, T0 (second value)
[2] = biological target: RSV A + RSV B bivalent composition (RSV subtype A; RSV subtype B); test: AM14 Fab titration by SEC; Target cycle; 1 M 40°C
[3] = biological target: RSV A + RSV B bivalent composition (RSV subtype A; RSV subtype B); test: AM14 Fab titration by SEC; High-Slow 2 cycle; 8 M 2-8°C
[4] = biological target: RSV A + RSV B bivalent composition (RSV subtype A; RSV subtype B); test: AM14 Fab titration by SEC; High-Slow 1 cycle; 8 M 25°C
[5] = biological target: RSV A + RSV B bivalent composition (RSV subtype A; RSV subtype B); test: AM14 Fab titration by SEC; Low-Fast cycle; 8 M 25°C
[6] = biological target: RSV A + RSV B bivalent composition (RSV subtype A; RSV subtype B); test: AM14 Fab titration by SEC; High-Slow 1 cycle; 1 M 25°C
[7] = biological target: RSV A + RSV B bivalent composition (RSV subtype A; RSV subtype B); test: AM14 Fab titration by SEC; Target cycle; 1 M 2-8°C (second value)
[8] = biological target: RSV A + RSV B bivalent composition (RSV subtype A; RSV subtype B); test: AM14 Fab titration by SEC; High-Slow 1 cycle; T0 (second value)
[9] = biological target: RSV A + RSV B bivalent composition (RSV subtype A; RSV subtype B); test: AM14 Fab titration by SEC; High-Slow 1 cycle; 1 M 25°C (second value)
[10] = biological target: RSV A + RSV B bivalent composition (RSV subtype A; RSV subtype B); test: AM14 Fab titration by SEC; Low-Fast cycle; T0 (second value)
[11] = biological target: T1, RSV F protein of subtype A comprising a …; test: AM14 ELISA; F8 (pH 7, 50 mM NaCl, 0% sucrose); 1 wk 5°C
[12] = biological target: T1, RSV F protein of subtype A comprising a …; test: AM14 ELISA; F14 (pH 7, 50 mM NaCl, 4.5% sucrose); 2 wk 25°C
[13] = biological target: T1, RSV F protein of subtype A comprising a …; test: AM14 ELISA; F4 (pH 6, 50 mM NaCl, 4.5% sucrose); 1 wk 25°C
[14] = biological target: T1, RSV F protein of subtype A comprising a …; test: AM14 ELISA; F2 (pH 8, 0 mM NaCl, 0% sucrose); 2 wk 25°C
[15] = biological target: T1, RSV F protein of subtype A comprising a …; test: AM14 ELISA; F18 (pH 7, 50 mM NaCl, 3% sucrose + 3% mannitol); T0
[16] = biological target: T1, RSV F protein of subtype A comprising a …; test: AM14 ELISA; F3 (pH 8, 0 mM NaCl, 9% sucrose); 2 wk 5°C
[17] = biological target: T1, RSV F protein of subtype A comprising a …; test: AM14 ELISA; F6 (pH 7, 0 mM NaCl, 4.5% sucrose); 2 wk 25°C
[18] = biological target: T1, RSV F protein of subtype A comprising a …; test: AM14 ELISA; F13 (pH 7, 100 mM NaCl, 4.5% sucrose); 2 wk 25°C
[19] = biological target: T1, RSV F protein of subtype A comprising a …; test: AM14 ELISA; F4 (pH 6, 50 mM NaCl, 4.5% sucrose); 2 wk 5°C

Molecule	Prefusion Content (%) [1]	Prefusion Content (%) [2]	Prefusion Content (%) [3]	Prefusion Content (%) [4]	Prefusion Content (%) [5]	Prefusion Content (%) [6]	Prefusion Content (%) [7]	Prefusion Content (%) [8]	Prefusion Content (%) [9]	Prefusion Content (%) [10]	AM14 prefusion content (%), relative to standard [11]	AM14 prefusion content (%), relative to standard [12]	AM14 prefusion content (%), relative to standard [13]	AM14 prefusion content (%), relative to standard [14]	AM14 prefusion content (%), relative to standard [15]	AM14 prefusion content (%), relative to standard [16]	AM14 prefusion content (%), relative to standard [17]	AM14 prefusion content (%), relative to standard [18]	AM14 prefusion content (%), relative to standard [19]
AM14 Fab	84%	64%	72%	63%	76%	51%	69%	68%	65%	82%									
B1											99%	78%	59%	56%	91%	70%	83%	37%	62%
